In patent US20200368258A1 (NORTHWESTERN UNIVERSITY, published 2020) one finds Kd data, which are given here for one molecule.

This assay addresses T1, WWP2 recombinant protein (SEQ ID NO:24) (Homo sapiens (Human), UniProt O00308 1-870).
T1 construct: It was expressed with a pET28b His-tag/thrombin leader; also called WWP2 polypeptide; Nedd4 WWP2
As to the kind of experiment: fluorescence polarization, WWP2 dose-response up to 19.6 µM, FITC-peptide probe at 5 nM. (In general: In fluorescence polarisation assays a small probe gives low polarisation when free and higher when bound to something large.)

No end group written: not given here. *: point of attachment. FITC = O=C1OC2(c3ccc(O)cc3Oc3cc(O)ccc32)c2ccc(NC(=S)*)cc21

T1 sequence (O00308 other isoform, or with tags, fused parts or gaps limits assumed): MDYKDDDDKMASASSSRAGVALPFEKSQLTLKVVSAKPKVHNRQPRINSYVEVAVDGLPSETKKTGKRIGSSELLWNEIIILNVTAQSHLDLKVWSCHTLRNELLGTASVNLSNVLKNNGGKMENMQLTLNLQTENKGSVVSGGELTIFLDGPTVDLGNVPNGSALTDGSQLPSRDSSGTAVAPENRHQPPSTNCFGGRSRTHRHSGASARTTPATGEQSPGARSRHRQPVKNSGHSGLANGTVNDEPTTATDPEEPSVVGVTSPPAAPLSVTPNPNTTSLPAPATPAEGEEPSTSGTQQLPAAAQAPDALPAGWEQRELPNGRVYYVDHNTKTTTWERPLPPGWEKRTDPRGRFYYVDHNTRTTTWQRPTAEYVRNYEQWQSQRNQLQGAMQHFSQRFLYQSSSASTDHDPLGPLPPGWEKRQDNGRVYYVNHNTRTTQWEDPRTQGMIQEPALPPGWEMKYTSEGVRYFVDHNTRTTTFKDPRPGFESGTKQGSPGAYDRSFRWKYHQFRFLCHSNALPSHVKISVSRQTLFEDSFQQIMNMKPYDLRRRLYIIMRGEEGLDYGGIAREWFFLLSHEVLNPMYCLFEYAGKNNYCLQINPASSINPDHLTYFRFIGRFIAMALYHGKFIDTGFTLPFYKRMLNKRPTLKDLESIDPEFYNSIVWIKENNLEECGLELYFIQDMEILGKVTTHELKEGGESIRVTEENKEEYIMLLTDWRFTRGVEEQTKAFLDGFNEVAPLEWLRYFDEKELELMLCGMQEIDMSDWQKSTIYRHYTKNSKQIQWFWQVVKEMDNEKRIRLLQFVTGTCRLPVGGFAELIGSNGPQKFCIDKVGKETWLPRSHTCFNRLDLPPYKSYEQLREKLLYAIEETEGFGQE

B1: FITC-labeled peptide probe with three tandem PY motif binding units derived from the p2 region of ASLV gag (SEQ ID NO:18) (peptide)
peptide: {FITC}-ATASAPPPYVGSGGGATASAPPPYVGSGGGATASAPPPYVGSGGGRRR
notes: Synthetic peptide (Biosynthesis, TX); also called FITC-peptide; FTIC-peptide
By Kd is commonly meant the free concentration of one partner at which half of the binding sites on the other are occupied at equilibrium, for simple one-to-one binding. Take B1: the Kd worked out at 200 nM.
